Laboratory results: patent publication US20250304690A1 (HANGZHOU VIROMAB BIOTECH, published 2025)

Columns and labels:
[1] = biological target: T1, CD3 on Jurkat cells and on human T cells (human, UniProt P07766 23-207); assay: flow cytometry on Jurkat cells
T1 construct: whole, on cells; also called CD3 end; CD3 antigen
Method: (§1) Then diluted antibodies with different concentrations were added. The cells were incubated at 4° C. for 0.5 h, centrifuged at 1200 rpm for 3-5 min, and washed with a FACS buffer. Then a goat anti-human IgG secondary antibody (manufacturer: Abcam, ab98596) was added at 100 L/well. The cells were incubated at 4° C. for 0.5 h, centrifuged at 1200 rpm for 3-5 min, washed with a FACs buffer, and resuspended in 50 μL of a FACs buffer, and assays were performed using a flow cytometer.

[2] = biological target: hCD3 (human CD3 antigen) (human, UniProt P07766 23-126); assay: ELISA, plate-coated hCD3
Method: The activity of the prepared humanized antibodies was assessed by ELISA as follows: hCD3 (human CD3 antigen) was diluted to 0.5 g/mL using a coating solution and then added to a 96-well plate at 100 μL/well, and the plate was incubated overnight at 4° C. The plate was washed with PBST. Then 200 µL of a blocking solution was added to each well, and blocking was performed at a temperature of 37° C. for 2 h. The plate was washed with PBST. Then diluted antibodies (the initial concentration was 40 nM, and serial dilution was performed in a 1:6 ratio) were added at 100 L/well, and the plate was incubated at a temperature of 37° C. for 2 h. The plate was washed with PBST. Then an HRP-labeled goat anti-human IgG was added at 100 L/well, and the plate was incubated at 37° C. for 1 h. The plate was washed with PBST, and TMB was added at 100 L/well. Color development was performed at 37° C. for 10-20 min, and 50 µL of 2 M H₂SO₄ was added to each well to stop the reaction. Readings were taken at 450 nm.

[3] = biological target: CD3 on 293T-CD3 cells; assay: flow cytometry on 293T-CD3 cells
CD3 on 293T-CD3 cells, sequence (chain, as listed by the source): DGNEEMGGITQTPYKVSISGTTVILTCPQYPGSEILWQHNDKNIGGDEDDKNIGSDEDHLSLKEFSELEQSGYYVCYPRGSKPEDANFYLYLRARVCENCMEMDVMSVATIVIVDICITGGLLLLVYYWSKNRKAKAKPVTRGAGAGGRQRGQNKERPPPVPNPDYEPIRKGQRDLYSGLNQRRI
Method: as §1

hCD3 (human CD3 antigen), sequence (P07766 23-126): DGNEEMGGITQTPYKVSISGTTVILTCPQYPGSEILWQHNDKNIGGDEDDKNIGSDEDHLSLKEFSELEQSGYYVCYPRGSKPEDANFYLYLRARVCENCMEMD
T1 sequence (P07766 23-207): as the sequence (chain, as listed by the source) above

| Binder | EC50 [1] | EC50 [2] | EC50 [3] |
| --- | --- | --- | --- |
| CD3 Ab07 (antibody, human IgG1, kappa, V domains shown, also called humanized anti-CD3 monoclonal antibody) VH: EVQLVESGGGLVQPGGSLRLSCAASGFTFNTYAMNWVRQAPGKGLEWVARIRSKYNNYATYYADSVKDRFTISRDDSKNILYLQMNSLKTEDTAVYYCVRHGNFGNSYVSWFAYWGQGTLVTVSA VL: QAVVTQEPSLTVSPGGTVTLTCRSSTGAVTTSNYANWVQQKPGQAPRGLIGGTNKRAPWTPARFSGSLLGGKAALTLSGAQTEDEAEYYCALWYSNLWVFGGGTKLTVLR | 2.42 nM | 0.0129 nM | 9.02 nM |
| CD3 Ab02 (antibody, human IgG1, kappa, V domains shown, also called humanized anti-CD3 monoclonal antibody) VH: EVQLVESGGGLVQPGGSLRLSCAASGFTFNTYAMNWVRQAPGKGLEWVARIRSKYNNYATYYADSVKDRFTISRDDSKNSLYLQMNSLKTEDTAVYYCVRHGNFGNSYVSWFAYWGQGTLVTVSA VL: QAVVTQEPSLTVSPGGTVTLTCRSSTGAVTTSNYANWVQQKPGQAPRGLIGGTNKRAPWTPARFSGSLLGGKAALTLSGAQTEDEAEYYCALWYSNLWVFGGGTKLTVLR | 2.64 nM | 0.0117 nM | 12.3 nM |
| CD3 Ab04 (antibody, human IgG1, kappa, V domains shown, also called humanized anti-CD3 monoclonal antibody) VH: EVQLVESGGGLVQPGGSLRLSCAASGFTFNTYAMNWVRQAPGKGLEWVARIRSKYNNYATYYADSVKDRFTISRDDSKNSLYLQMNSLKTEDTAVYYCVRHGNFGNSYVSWFAYWGQGTLVTVSA VL: QAVVTQEPSLTVSPGGTVTLTCRSSTGAVTTSNYANWVQQKPGQAPRGLIGGTNKRAPWVPARFSGSLLGDKAALTLSGAQTEDEAEYYCALWYSNLWVFGGGTKLTVLR | 1.18 nM | 0.0068 nM | 5.23 nM |
| CD3 Ab05 (antibody, human IgG1, kappa, V domains shown, also called humanized anti-CD3 monoclonal antibody) VH: EVQLVESGGGLVQPGGSLRLSCAASGFTFNTYAMNWVRQAPGKGLEWVARIRSKYNNYATYYADSVKDRFTISRDDSKNSLYLQMNSLKTEDTAVYYCVRHGNFGNSYVSWFAYWGQGTLVTVSA VL: QAVVTQEPSLTVSPGGTVTLTCRSSTGAVTTSNYANWVQEKPGQAPRGLIGGTNKRAPWVPARFSGSLLGDKAALTLSGAQTEDEAEYYCALWYSNLWVFGGGTKLTVLR | 1.02 nM | 0.0099 nM | 4.27 nM |
| CD3 Ab03 (antibody, human IgG1, kappa, V domains shown, also called humanized anti-CD3 monoclonal antibody) VH: EVQLVESGGGLVQPGGSLRLSCAASGFTFNTYAMNWVRQAPGKGLEWVARIRSKYNNYATYYADSVKDRFTISRDDSKNSLYLQMNSLKTEDTAVYYCVRHGNFGNSYVSWFAYWGQGTLVTVSA VL: QAVVTQEPSLTVSPGGTVTLTCRSSTGAVTTSNYANWVQQKPGQAPRGLIGGTNKRAPWTPARFSGSLLGGKAALTITGAQTEDEAEYYCALWYSNLWVFGGGTKLTVLR | 2.28 nM | 0.0042 nM | 10.1 nM |
| CD3 Ab06 (antibody, human IgG1, kappa, V domains shown, also called humanized anti-CD3 monoclonal antibody) VH: EVQLVESGGGLVQPGGSLRLSCAASGFTFNTYAMNWVRQAPGKGLEWVARIRSKYNNYATYYADSVKDRFTISRDDSKNILYLQMNSLKTEDTAVYYCVRHGNFGNSYVSWFAYWGQGTLVTVSA VL: QAVVTQEPSLTVSPGGTVTLTCRSSTGAVTTSNYANWVQQKPGQAPRGLIGGTNKRAPWTPARFSGSLLGGKAALTLSGAQPEDEAEYYCALWYSNLWVFGGGTKLTVLR | 3.31 nM | 0.0126 nM | 13 nM |
| CD3 Ab01 (antibody, human IgG1, kappa, V domains shown, also called humanized anti-CD3 monoclonal antibody) VH: EVQLVESGGGLVQPGGSLRLSCAASGFTFNTYAMNWVRQAPGKGLEWVARIRSKYNNYATYYADSVKDRFTISRDDSKNSLYLQMNSLKTEDTAVYYCVRHGNFGNSYVSWFAYWGQGTLVTVSA VL: QAVVTQEPSLTVSPGGTVTLTCRSSTGAVTTSNYANWVQQKPGQAPRGLIGGTNKRAPWTPARFSGSLLGGKAALTLSGAQPEDEAEYYCALWYSNLWVFGGGTKLTVLR | 3.3 nM | 0.0096 nM | 22.6 nM |
